T1: GST-εRACK (Homo sapiens, UniProt P35606)
T1 construct: made in house; host or cells: Hi5 insect cells (baculovirus made in Sf9)
T1 sequence (P35606 2-906 limits assumed): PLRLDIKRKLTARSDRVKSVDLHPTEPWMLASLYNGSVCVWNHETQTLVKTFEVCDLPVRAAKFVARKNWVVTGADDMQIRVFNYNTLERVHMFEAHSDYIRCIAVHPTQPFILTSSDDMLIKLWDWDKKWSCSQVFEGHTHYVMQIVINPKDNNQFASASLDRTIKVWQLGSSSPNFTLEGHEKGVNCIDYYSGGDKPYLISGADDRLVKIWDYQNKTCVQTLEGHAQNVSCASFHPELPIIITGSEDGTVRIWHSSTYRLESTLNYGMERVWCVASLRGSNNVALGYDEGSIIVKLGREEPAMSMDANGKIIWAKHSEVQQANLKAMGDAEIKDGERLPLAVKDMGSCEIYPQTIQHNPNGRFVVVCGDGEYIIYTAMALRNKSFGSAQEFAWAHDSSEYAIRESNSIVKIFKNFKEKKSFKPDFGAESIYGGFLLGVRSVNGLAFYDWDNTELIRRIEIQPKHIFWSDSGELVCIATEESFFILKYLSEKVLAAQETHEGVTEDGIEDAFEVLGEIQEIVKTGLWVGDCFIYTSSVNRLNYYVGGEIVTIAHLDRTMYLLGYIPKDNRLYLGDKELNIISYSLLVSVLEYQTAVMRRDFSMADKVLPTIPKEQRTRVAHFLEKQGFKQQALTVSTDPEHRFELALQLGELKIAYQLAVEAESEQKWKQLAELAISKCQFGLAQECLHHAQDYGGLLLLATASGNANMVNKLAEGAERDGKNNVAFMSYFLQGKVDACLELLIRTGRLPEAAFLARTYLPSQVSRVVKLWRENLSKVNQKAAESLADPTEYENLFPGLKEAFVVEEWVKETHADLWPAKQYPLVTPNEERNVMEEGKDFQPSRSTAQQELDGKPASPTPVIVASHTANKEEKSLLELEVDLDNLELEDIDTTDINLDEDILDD


Legend:
[1] = biological target: T1, GST-εRACK; test: εRACK binding assay; settings: for change of binding to εRACK in the presence of PL: with versus without phosphatidylserine and Sn-1,2 dioleoylglycerol
Procedure: RACKs bind active PKC [Mochly-Rosen, D. & Gordon, A. S., FASEB J. 12:35-42 (1998); Mochly-Rosen, D. et al., Molec. Biol. Cell. (formerly Cell Regulation) 1:693-706 (1990).
Insect cells expressing either εPKC or GST-εRACK were lysed as described in Example 4. GST-εRACK, […] was immobilized on Glutathion-Sepharose 4B beads (Amersham-Pharmacia), and washed thoroughly with wash buffer (20 mM Tris-HCl pH 7.5, 2 mM EDTA, 100 mM NaCl, 12 mM βME, and 0.1% TritonX-100). Immobilized GST-εRACK was then incubated with the soluble fraction of insect cell lysates containing 100 ng Wt, D(86)A, or D(86)N εPKC protein, in the presence or absence of phospholipid activators (PL) (phosphatidylserine 12 μg/reaction and, Sn-1,2 dioleoylglycerol 400 ng/reaction) for 1 hour at 4° C. Upon thorough washing with wash buffer, bound proteins were eluted in SDS-PAGE sample buffer and proteins separated on 8% SDS-PAGE gels. The amount of εPKC interacting with εRACK was determined by Western blot probing for εPKC with anti εPKC-V5 antibodies. Blots were then re-probed with ant-GST (Santa Cruz) to verify that the same amount of GST-εRACK was present in each binding assay. All other methods for this Example were performed as described, for example, in Example 4.

[2] = Fluorescence recovery after photobleaching (FRAP) of cytoplasmic εPKCs; type: cell-based; settings: average of at least 10 cells
Procedure: CHO cells were grown on glass coverslips, and serum-starved as described in Example 4. For each experiment, cells were transferred to a commercially available metal coverslip holder (Molecular Probes) in which the coverslip formed the bottom of a 1 ml bath. The media was then replaced with extracellular buffer (120 mM NaCl, 5 mM KCl, 1.5 mM CaCl2, 1.5 mM MgCl2, 20 mM HEPES and 30 mM glucose). Cells were stimulated by either PMA (100 nM), or with ATP (1 mM) in extracellular buffer. Fluorescence images of GFP-tagged constructs were obtained using the 488 nm excitation line of a laser scanning confocal microscope (Pascal, Zeiss) and emission was collected through a 505-550 nm band pass filter. Cells were imaged on the stage of an inverted microscope (Axiovert 100M) using a 40× Zeiss Plan-apo oil immersion objective with 1.2 numerical aperture (NA). For dual color imaging of CFP and YFP fusion proteins, a spinning disk Nipkow confocal microscope was used. Cells were viewed using an inverted Olympus IX70 microscope with a 40× oil immersion Olympus objective (1.35NA) and images were acquired with a CCD camera (Hamamatsu) and 2×2 pixel binning. […] Under these conditions, and by placing an iris in the beam path, it was possible to bleach 80% of the YFP fluorescence in 500 ms in an area of the cytosol measuring approximately 35 um2. […] Images were exported as 12 or 16 bit files and changes in fluorescence intensity were measured using MetaMorph® data analysis software (Universal Imaging Corp.). To monitor the translocation of PKC, a small region of interest was selected in the cytosol of each cell and fluorescence intensity values graphed against time after subtraction of background values and normalized so that the initial fluorescence was 100%. […]
Different translocation rates may reflect differences in overall mobility (diffusion) of the εPKCs in cells. Therefore, fluorescence recovery after photobleaching (FRAP) of the cytoplasmic enzyme was measured; mobility of εPKCs was measured by monitoring the time required for the fluorescence to recover in a bleached region. […]

Row | binding to εRACK relative to D(86)N or Wt ([1]; absence of PL activators) | change of binding to εRACK in the presence of PL [1] | εRACK binding compared with D(86)A or Wt ([1]; presence of an equal concentration of PL) | Molecule | time to fifty percent FRAP [2] [s]
1 | at least two fold greater | not increased |  | D(86)A: εPKC mutant wherein D at position 86 of ΨεRACK on εPKC is substituted with an A (protein) MVVFNGLLKIKICEAVSLKPTAWSLRHAVGPRPATFLLDPYIALNVDDSRIGQTATKQKTNSPAWHDEFVTDVCNGRKIELAVFHAAPIGYDDFVANCTIQFEELLQNGSRHFEDWIDLEPEGRVYVIIDLSGSSGEAPKDNEERVFRERMRPRKRQGAVRRRVHQVNGHKFMATYLRQPTYCSHCRDFIWGVIGKQGYQCQVCTCVVHKRCHELIITKCAGLKKQETPDQVGSQRFSVNMPHKFGIHNYKVPTFCDHCGSLLWGLLRQGLQCKVCKMNVHRRCETNVAPNCGVDARGIAKVLADLGVTPDKITNSGQRRKKLIAGAESPQPASGGSPSEEDRSKSAPTSPCDQEIKELENNIRKALSFDNRGEEHRAASSPDGQLMSPGENGEVRQGQAKRLGLDEFNFIKVLGKGSFGKVMLAELKGKDEVYAVKVLKKDVILQDDDVDCTMTEKRILALARKHPYLTQLYCCFQTKDRLFFVMEYVNGGDLMFQIQRSRKFDEPRSRFYAAEVTSALMFLHQHGVIYRDLKLDNILLDAEGHCKLADFGMCKEGILNGVTTTTFCGTPDYIAPEILQELEYGPSVDWWALGVLMYEMMAGQPPFEADNEDDLFESILHDDVLYPVWLSKEAVSILKAFMTKNPHKRLGCVASQNGEDAIKQHPFFKEIDWVLLEQKKIKPPFKPRIKTKRDVNNFDQDFTREEPVLTLVDEAIVKQINQEEFKGFSYFGEDLMP | 9.2 ± 1.1
2 |  | significantly increased |  | Wt: wild type εPKC, human construct (protein) MVVFNGLLKIKICEAVSLKPTAWSLRHAVGPRPATFLLDPYIALNVDDSRIGQTATKQKTNSPAWHDEFVTDVCNGRKIELAVFHDAPIGYDDFVANCTIQFEELLQNGSRHFEDWIDLEPEGRVYVIIDLSGSSGEAPKDNEERVFRERMRPRKRQGAVRRRVHQVNGHKFMATYLRQPTYCSHCRDFIWGVIGKQGYQCQVCTCVVHKRCHELIITKCAGLKKQETPDQVGSQRFSVNMPHKFGIHNYKVPTFCDHCGSLLWGLLRQGLQCKVCKMNVHRRCETNVAPNCGVDARGIAKVLADLGVTPDKITNSGQRRKKLIAGAESPQPASGGSPSEEDRSKSAPTSPCDQEIKELENNIRKALSFDNRGEEHRAASSPDGQLMSPGENGEVRQGQAKRLGLDEFNFIKVLGKGSFGKVMLAELKGKDEVYAVKVLKKDVILQDDDVDCTMTEKRILALARKHPYLTQLYCCFQTKDRLFFVMEYVNGGDLMFQIQRSRKFDEPRSRFYAAEVTSALMFLHQHGVIYRDLKLDNILLDAEGHCKLADFGMCKEGILNGVTTTTFCGTPDYIAPEILQELEYGPSVDWWALGVLMYEMMAGQPPFEADNEDDLFESILHDDVLYPVWLSKEAVSILKAFMTKNPHKRLGCVASQNGEDAIKQHPFFKEIDWVLLEQKKIKPPFKPRIKTKRDVNNFDQDFTREEPVLTLVDEAIVKQINQEEFKGFSYFGEDLMP | 9.0 ± 1.2
3 |  | significantly increased | less εRACK binding | D(86)N: εPKC mutant wherein D at position 86 of ΨεRACK in εPKC is substituted with an N (protein) MVVFNGLLKIKICEAVSLKPTAWSLRHAVGPRPATFLLDPYIALNVDDSRIGQTATKQKTNSPAWHDEFVTDVCNGRKIELAVFHNAPIGYDDFVANCTIQFEELLQNGSRHFEDWIDLEPEGRVYVIIDLSGSSGEAPKDNEERVFRERMRPRKRQGAVRRRVHQVNGHKFMATYLRQPTYCSHCRDFIWGVIGKQGYQCQVCTCVVHKRCHELIITKCAGLKKQETPDQVGSQRFSVNMPHKFGIHNYKVPTFCDHCGSLLWGLLRQGLQCKVCKMNVHRRCETNVAPNCGVDARGIAKVLADLGVTPDKITNSGQRRKKLIAGAESPQPASGGSPSEEDRSKSAPTSPCDQEIKELENNIRKALSFDNRGEEHRAASSPDGQLMSPGENGEVRQGQAKRLGLDEFNFIKVLGKGSFGKVMLAELKGKDEVYAVKVLKKDVILQDDDVDCTMTEKRILALARKHPYLTQLYCCFQTKDRLFFVMEYVNGGDLMFQIQRSRKFDEPRSRFYAAEVTSALMFLHQHGVIYRDLKLDNILLDAEGHCKLADFGMCKEGILNGVTTTTFCGTPDYIAPEILQELEYGPSVDWWALGVLMYEMMAGQPPFEADNEDDLFESILHDDVLYPVWLSKEAVSILKAFMTKNPHKRLGCVASQNGEDAIKQHPFFKEIDWVLLEQKKIKPPFKPRIKTKRDVNNFDQDFTREEPVLTLVDEAIVKQINQEEFKGFSYFGEDLMP | 9.1 ± 1.6
